Experimental data as given in PMC4164354.
Values joined by “and” are separate entries in the source; they are usually repeats but may differ in a detail not shown here. Equal values may be shown once.

Legend:
[1] = target: bovine lactoferrin purified from bovine colostrum as the high molecular weight biomacromolecular complex (HMW-bLf) (bovine); assay: SDS-PAGE and Western blot; 3 mg mL^-1 HMW-bLf in 50 mM Tris HCl pH 7.5 with 1 M NaCl, 1 day at 37°C; gradient SDS-PAGE (reducing gel), blot probed with goat anti-bLf
[2] = target: native monomeric bovine lactoferrin (NM-bLf) (bovine); assay: SDS-PAGE; NM-bLf stored at high concentration; denaturing SDS-PAGE; data not shown

Which stoichiometry N [1] does the source give for “bovine lactoferrin purified from bovine colostrum as the high molecular weight biomacromolecular complex (HMW-bLf) (natural protein)” here?
Its stoichiometry N is 2.

“native monomeric bovine lactoferrin (NM-bLf) (natural protein)” was tested. Which stoichiometry N [2] did it give?
Its stoichiometry N is 3 and 2.
